Experiments:
Assay in all cases: competitive inhibition of Tra2β
[1] = biological target: T1, Tra2β(ΔN/RRM) C-terminal RS domain (Homo sapiens, UniProt P62995)
T1 chain: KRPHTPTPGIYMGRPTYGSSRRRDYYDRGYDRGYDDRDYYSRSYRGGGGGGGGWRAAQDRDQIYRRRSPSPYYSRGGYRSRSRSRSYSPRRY

[2] = biological target: T2, Tra2β(ΔN/RS2) RRM and N-terminal half of C-terminal RS domain (Homo sapiens, UniProt P62995)
T2 chain: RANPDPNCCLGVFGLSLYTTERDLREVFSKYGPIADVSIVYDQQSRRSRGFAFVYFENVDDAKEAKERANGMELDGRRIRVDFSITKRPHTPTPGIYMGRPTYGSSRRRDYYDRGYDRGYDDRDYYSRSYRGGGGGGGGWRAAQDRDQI

Tra2β(ΔN) 114-288 = biological target: T3, Tra2β(ΔN) 114-288 (Homo sapiens, UniProt P62995)
T3 chain: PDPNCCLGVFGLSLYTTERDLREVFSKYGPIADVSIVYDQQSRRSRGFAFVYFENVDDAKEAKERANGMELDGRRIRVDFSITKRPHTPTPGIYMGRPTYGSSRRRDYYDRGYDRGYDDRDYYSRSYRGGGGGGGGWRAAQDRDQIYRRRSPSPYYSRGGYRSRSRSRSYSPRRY

B1: SRPK1 (protein)
chain: MERKVLALQARKKRTKAKKDKAQRKSETQHRGSAPHSESDLPEQEEEILGSDDDEQEDPNDYCKGGYHLVKIGDLFNGRYHVIRKLGWGHFSTVWLSWDIQGKKFVAMKVVKSAEHYTETALDEIRLLKSVRNSDPNDPNREMVVQLLDDFKISGVNGTHICMVFEVLGHHLLKWIIKSNYQGLPLPCVKKIIQQVLQGLDYLHTKCRIIHTDIKPENILLSVNEQYIRRLAAEATEWQRSGAPPPSGSAVSTAPQPKPADKMSKNKKKKLKKKQKRQAELLEKRMQEIEEMEKESGPGQKRPNKQEESESPVERPLKENPPNKMTQEKLEESSTIGQDQTLMERDTEGGAAEINCNGVIEVINYTQNSNNETLRHKEDLHNANDCDVQNLNQESSFLSSQNGDSSTSQETDSCTPITSEVSDTMVCQSSSTVGQSFSEQHISQLQESIRAEIPCEDEQEQEHNGPLDNKGKSTAGNFLVNPLEPKNAEKLKVKIADLGNACWVHKHFTEDIQTRQYRSLEVLIGSGYNTPADIWSTACMAFELATGDYLFEPHSGEEYTRDEDHIALIIELLGKVPRKLIVAGKYSKEFFTKKGDLKHITKLKPWGLFEVLVEKYEWSQEEAAGFTDFLLPMLELIPEKRATAAECLRHPWLNS
Ki [1]: 45 nM
Ki [2]: 180 nM
Ki (Tra2β(ΔN) 114-288): 11 nM

From publication PMC3865722 (2014)
